For 27 molecules, Kd results are on record in PMC10786891, “Massively parallel profiling of RNA-targeting CRISPR-Cas13d”.

B1: target 1 MT 5'PFS CCG 3'PFS CUC (mixed)
RNA 1: CACCCGUGCAAAAAUGCAGGGGUCUAAAACUGAGCGGAUAACCUCUCUAUGG
RNA 2: GGGAAUGGAUCCACAUCUACGAAUUCCCGCCAUAGAGAGGUUAUCCGCUCACUCAGAUCGGAAGAGCACACGU
B2: target 1 MT 5'PFS GGU 3'PFS UCC (mixed)
RNA 1: CACCCGUGCAAAAAUGCAGGGGUCUAAAACUGAGCGGAUAACCUCUCUAUGG
RNA 2: GGGAAUGGAUCCACAUCUACGAAUUCGGUCCAUAGAGAGGUUAUCCGCUCAUCCAGAUCGGAAGAGCACACGU
B3: target 1 MT 5'PFS GAG 3'PFS UUC (mixed)
RNA 1: CACCCGUGCAAAAAUGCAGGGGUCUAAAACUGAGCGGAUAACCUCUCUAUGG
RNA 2: GGGAAUGGAUCCACAUCUACGAAUUCGAGCCAUAGAGAGGUUAUCCGCUCAUUCAGAUCGGAAGAGCACACGU
B4: target 1 MT 5'PFS GAG 3'PFS UUA (mixed)
RNA 1: CACCCGUGCAAAAAUGCAGGGGUCUAAAACUGAGCGGAUAACCUCUCUAUGG
RNA 2: GGGAAUGGAUCCACAUCUACGAAUUCGAGCCAUAGAGAGGUUAUCCGCUCAUUAAGAUCGGAAGAGCACACGU
B5: target 1 MT 5'PFS CCG 3'PFS CUA (mixed)
RNA 1: CACCCGUGCAAAAAUGCAGGGGUCUAAAACUGAGCGGAUAACCUCUCUAUGG
RNA 2: GGGAAUGGAUCCACAUCUACGAAUUCCCGCCAUAGAGAGGUUAUCCGCUCACUAAGAUCGGAAGAGCACACGU
B6: target 1 MT 5'PFS GCU 3'PFS ACU (mixed)
RNA 1: CACCCGUGCAAAAAUGCAGGGGUCUAAAACUGAGCGGAUAACCUCUCUAUGG
RNA 2: GGGAAUGGAUCCACAUCUACGAAUUCGCUCCAUAGAGAGGUUAUCCGCUCAACUAGAUCGGAAGAGCACACGU
B7: target 1 MT 5'PFS UGC 3'PFS UUG (mixed)
RNA 1: CACCCGUGCAAAAAUGCAGGGGUCUAAAACUGAGCGGAUAACCUCUCUAUGG
RNA 2: GGGAAUGGAUCCACAUCUACGAAUUCUGCCCAUAGAGAGGUUAUCCGCUCAUUGAGAUCGGAAGAGCACACGU
B8: target 1 MT 5'PFS GCU 3'PFS GAA (mixed)
RNA 1: CACCCGUGCAAAAAUGCAGGGGUCUAAAACUGAGCGGAUAACCUCUCUAUGG
RNA 2: GGGAAUGGAUCCACAUCUACGAAUUCGCUCCAUAGAGAGGUUAUCCGCUCAGAAAGAUCGGAAGAGCACACGU
B9: target 1 MT 5'PFS UCA 3'PFS UAG (mixed)
RNA 1: CACCCGUGCAAAAAUGCAGGGGUCUAAAACUGAGCGGAUAACCUCUCUAUGG
RNA 2: GGGAAUGGAUCCACAUCUACGAAUUCUCACCAUAGAGAGGUUAUCCGCUCAUAGAGAUCGGAAGAGCACACGU
B10: target 1 MT 5'PFS GCC 3'PFS CCA (mixed)
RNA 1: CACCCGUGCAAAAAUGCAGGGGUCUAAAACUGAGCGGAUAACCUCUCUAUGG
RNA 2: GGGAAUGGAUCCACAUCUACGAAUUCGCCCCAUAGAGAGGUUAUCCGCUCACCAAGAUCGGAAGAGCACACGU
B11: target 1 MT 5'PFS GCA 3'PFS CUU (mixed)
RNA 1: CACCCGUGCAAAAAUGCAGGGGUCUAAAACUGAGCGGAUAACCUCUCUAUGG
RNA 2: GGGAAUGGAUCCACAUCUACGAAUUCGCACCAUAGAGAGGUUAUCCGCUCACUUAGAUCGGAAGAGCACACGU
B12: target 1 MT 5'PFS GUC 3'PFS CGA (mixed)
RNA 1: CACCCGUGCAAAAAUGCAGGGGUCUAAAACUGAGCGGAUAACCUCUCUAUGG
RNA 2: GGGAAUGGAUCCACAUCUACGAAUUCGUCCCAUAGAGAGGUUAUCCGCUCACGAAGAUCGGAAGAGCACACGU
B13: target 1 MT 5'PFS UCA 3'PFS UAA (mixed)
RNA 1: CACCCGUGCAAAAAUGCAGGGGUCUAAAACUGAGCGGAUAACCUCUCUAUGG
RNA 2: GGGAAUGGAUCCACAUCUACGAAUUCUCACCAUAGAGAGGUUAUCCGCUCAUAAAGAUCGGAAGAGCACACGU
B14: target 1 MT 5'PFS GCA 3'PFS CUA (mixed)
RNA 1: CACCCGUGCAAAAAUGCAGGGGUCUAAAACUGAGCGGAUAACCUCUCUAUGG
RNA 2: GGGAAUGGAUCCACAUCUACGAAUUCGCACCAUAGAGAGGUUAUCCGCUCACUAAGAUCGGAAGAGCACACGU
B15: target 1 MT 5'PFS ACU 3'PFS ACA (mixed)
RNA 1: CACCCGUGCAAAAAUGCAGGGGUCUAAAACUGAGCGGAUAACCUCUCUAUGG
RNA 2: GGGAAUGGAUCCACAUCUACGAAUUCACUCCAUAGAGAGGUUAUCCGCUCAACAAGAUCGGAAGAGCACACGU
B16: target 1 MT 5'PFS GCC 3'PFS CCG (mixed)
RNA 1: CACCCGUGCAAAAAUGCAGGGGUCUAAAACUGAGCGGAUAACCUCUCUAUGG
RNA 2: GGGAAUGGAUCCACAUCUACGAAUUCGCCCCAUAGAGAGGUUAUCCGCUCACCGAGAUCGGAAGAGCACACGU
B17: target 1 MT 5'PFS GCU 3'PFS ACG (mixed)
RNA 1: CACCCGUGCAAAAAUGCAGGGGUCUAAAACUGAGCGGAUAACCUCUCUAUGG
RNA 2: GGGAAUGGAUCCACAUCUACGAAUUCGCUCCAUAGAGAGGUUAUCCGCUCAACGAGAUCGGAAGAGCACACGU
B18: target 1 MT 5'PFS GCG 3'PFS ACA (mixed)
RNA 1: CACCCGUGCAAAAAUGCAGGGGUCUAAAACUGAGCGGAUAACCUCUCUAUGG
RNA 2: GGGAAUGGAUCCACAUCUACGAAUUCGCGCCAUAGAGAGGUUAUCCGCUCAACAAGAUCGGAAGAGCACACGU
B19: target 1 MT 5'PFS GCG 3'PFS ACG (mixed)
RNA 1: CACCCGUGCAAAAAUGCAGGGGUCUAAAACUGAGCGGAUAACCUCUCUAUGG
RNA 2: GGGAAUGGAUCCACAUCUACGAAUUCGCGCCAUAGAGAGGUUAUCCGCUCAACGAGAUCGGAAGAGCACACGU
B20: target 1 MT 5'PFS GUC 3'PFS CGG (mixed)
RNA 1: CACCCGUGCAAAAAUGCAGGGGUCUAAAACUGAGCGGAUAACCUCUCUAUGG
RNA 2: GGGAAUGGAUCCACAUCUACGAAUUCGUCCCAUAGAGAGGUUAUCCGCUCACGGAGAUCGGAAGAGCACACGU
B21: target 1 MT 5'PFS GCU 3'PFS ACC (mixed)
RNA 1: CACCCGUGCAAAAAUGCAGGGGUCUAAAACUGAGCGGAUAACCUCUCUAUGG
RNA 2: GGGAAUGGAUCCACAUCUACGAAUUCGCUCCAUAGAGAGGUUAUCCGCUCAACCAGAUCGGAAGAGCACACGU
B22: target 1 MT 5'PFS UGC 3'PFS UUC (mixed)
RNA 1: CACCCGUGCAAAAAUGCAGGGGUCUAAAACUGAGCGGAUAACCUCUCUAUGG
RNA 2: GGGAAUGGAUCCACAUCUACGAAUUCUGCCCAUAGAGAGGUUAUCCGCUCAUUCAGAUCGGAAGAGCACACGU
B23: target 1 MT 5'PFS UCA 3'PFS UAU (mixed)
RNA 1: CACCCGUGCAAAAAUGCAGGGGUCUAAAACUGAGCGGAUAACCUCUCUAUGG
RNA 2: GGGAAUGGAUCCACAUCUACGAAUUCUCACCAUAGAGAGGUUAUCCGCUCAUAUAGAUCGGAAGAGCACACGU
B24: target 1 C2A,A18C (mixed)
RNA 1: CACCCGUGCAAAAAUGCAGGGGUCUAAAACUGAGCGGAUAACCUCUCUAUGG
RNA 2: GGGAAUGGAUCCACAUCUACGAAUUCGUACCAUCGAGAGGUUAUCCGCUAACCGAGAUCGGAAGAGCACACGU
B25: target 1 insG 3' of 22,insC 3' of 14 (mixed)
RNA 1: CACCCGUGCAAAAAUGCAGGGGUCUAAAACUGAGCGGAUAACCUCUCUAUGG
RNA 2: GGGAAUGGAUCCACAUCUACGAAUUCGUACGCAUAGAGACGGUUAUCCGCUCACCGAGAUCGGAAGAGCACACGU
B26: target 1 MT 5'PFS GUC 3'PFS CGC (mixed)
RNA 1: CACCCGUGCAAAAAUGCAGGGGUCUAAAACUGAGCGGAUAACCUCUCUAUGG
RNA 2: GGGAAUGGAUCCACAUCUACGAAUUCGUCCCAUAGAGAGGUUAUCCGCUCACGCAGAUCGGAAGAGCACACGU
B27: target 1 MT 5'PFS GGU 3'PFS UCA (mixed)
RNA 1: CACCCGUGCAAAAAUGCAGGGGUCUAAAACUGAGCGGAUAACCUCUCUAUGG
RNA 2: GGGAAUGGAUCCACAUCUACGAAUUCGGUCCAUAGAGAGGUUAUCCGCUCAUCAAGAUCGGAAGAGCACACGU

For the data set, the target named is T1, EsCas13d, nuclease-dead (Eubacterium siraeum, UniProt B0MS50, R295A;H300A;R849A;H854A).
T1 sequence: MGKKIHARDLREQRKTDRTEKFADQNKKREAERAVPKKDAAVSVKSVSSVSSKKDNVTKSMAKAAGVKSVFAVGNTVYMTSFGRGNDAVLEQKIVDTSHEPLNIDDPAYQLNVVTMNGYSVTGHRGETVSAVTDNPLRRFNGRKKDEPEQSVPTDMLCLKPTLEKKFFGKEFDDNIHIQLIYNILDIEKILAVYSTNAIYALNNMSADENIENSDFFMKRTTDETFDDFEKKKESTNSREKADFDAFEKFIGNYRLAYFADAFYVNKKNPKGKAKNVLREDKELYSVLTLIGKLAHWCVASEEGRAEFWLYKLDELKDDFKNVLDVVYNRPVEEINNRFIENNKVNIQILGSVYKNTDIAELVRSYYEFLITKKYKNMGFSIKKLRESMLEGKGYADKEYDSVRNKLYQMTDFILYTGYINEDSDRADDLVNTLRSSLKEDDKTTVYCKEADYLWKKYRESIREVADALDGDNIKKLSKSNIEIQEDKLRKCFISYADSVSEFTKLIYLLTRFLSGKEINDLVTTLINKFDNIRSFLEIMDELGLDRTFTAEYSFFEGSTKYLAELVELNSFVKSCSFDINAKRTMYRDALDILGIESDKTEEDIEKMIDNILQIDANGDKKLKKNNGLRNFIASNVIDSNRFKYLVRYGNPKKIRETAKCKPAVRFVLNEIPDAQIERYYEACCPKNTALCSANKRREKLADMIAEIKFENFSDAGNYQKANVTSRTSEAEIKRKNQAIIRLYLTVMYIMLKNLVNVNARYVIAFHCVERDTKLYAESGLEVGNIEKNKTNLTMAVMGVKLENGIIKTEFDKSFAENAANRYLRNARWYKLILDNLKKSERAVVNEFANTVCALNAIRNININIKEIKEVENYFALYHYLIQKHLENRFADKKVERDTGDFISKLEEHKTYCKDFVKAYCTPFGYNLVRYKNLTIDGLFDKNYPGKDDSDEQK
As to the kind of experiment: crRNA (strand 1, pre-loaded); Mg2+; 40 mM Tris-HCl pH 7.5, 150 mM NaCl, 6 mM MgCl2, 1 mM DTT, 0.1% Tween-20, 0.2 mg/ml BSA; 25 C; 10 min per concentration, then washed. Conditions: tags: His6-TwinStrep-SUMO cleaved; N-terminal SNAP kept (SNAP-Surface 488); label: 3' end held by stalled T7 RNA polymerase.
Regarding B1, the equilibrium dissociation constant (Kd) amounted to 3.15 ± 1 nM. Consider B2, for which the affinity, expressed as Kd, was 21 ± 5.5 nM.

Molecule B3 returned an equilibrium dissociation constant (Kd) of 37 ± 11 nM.

In turn, B4 returned a dissociation constant Kd of 36 ± 9 nM. For B5, the dissociation constant (Kd) came out at 7.9 ± 2.9 nM.

On to B6, for which the dissociation constant Kd came out at 33 ± 11 nM. With B7, binding was put at a Kd of 10.7 ± 2.05 nM.

In the case of B8, the Kd is approximately 110 nM. On to B9, for which the dissociation constant Kd is approximately 50 nM. Take B10: the equilibrium dissociation constant (Kd) is 95 ± 40 nM. Under B11 stands 11.8 ± 2.55 nM.

B12 showed a Kd of 19.5 ± 4 nM. In turn, B13 came in with a dissociation constant Kd of 9.45 ± 3.3 nM.

B14: the Kd came to 18.4 ± 4.7 nM. Turning to B15, the dissociation constant (Kd) is approximately 90 nM. Consider B16, for which the Kd is 12.9 ± 3.15 nM. Regarding B17, binding was put at a Kd of 43.5 ± 10.5 nM. With B18, the affinity, expressed as Kd, was 32.5 ± 14.5 nM. For the molecule B19, the affinity, expressed as Kd, was 49.5 ± 10 nM.

B20 had a Kd of 28.5 ± 7 nM.

Molecule B21 yielded a Kd of 43 ± 14.5 nM. Consider B22, for which the affinity, expressed as Kd, was 14 ± 3.7 nM. Take B23: the Kd is 11.5 ± 2.3 nM. Molecule B24 registered a Kd of 47.9 ± 3.3 nM. The molecule B25 registered a Kd of 41 ± 17 nM.

Molecule B26 registered a Kd of 22 ± 4.5 nM. On to B27, for which the Kd stood at 44 ± 19 nM.

The Kd is the equilibrium constant for the complex coming apart.
